# Test results: the supplement of paper PMC5998384
# What was measured:
# [1] = tested on: HeLa Kyoto; assay: thermal stability score vs G1/S (z-score of summed log2 fold changes over temperatures); higher = more thermally stable than in G1/S
# [2] = tested on: HeLa Kyoto; assay: solubility change mitosis vs G1/S (difference of NP-40 vs SDS log2 ratios) (log2 ratio difference); higher = more soluble in mitosis
# [3] = tested on: HeLa Kyoto; assay: solubility in G1/S (NP-40 vs SDS abundance) (log2 ratio); higher = more soluble; settings: cell cycle stage: G1/S
# [4] = tested on: HeLa Kyoto; assay: melting temperature (median over replicates), in situ; higher = more thermally stable
# [5] = cell cycle stage: early G1 (4.5 h after nocodazole release)
# 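Wherever melting temperature (median over replicates), in situ is given: HeLa Kyoto cells synchronized by double thymidine or nocodazole block, proteins quantified by TMT10plex mass spectrometry, three independent biological replicates.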
# 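Wherever solubility change mitosis vs G1/S (difference of NP-40 vs SDS log2 ratios) is given: synchronized HeLa Kyoto cells (double thymidine block for G1/S, nocodazole release for mitosis), protein amounts in NP-40 versus SDS lysates quantified by mass spectrometry, three biological replicates.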
# 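Wherever solubility in G1/S (NP-40 vs SDS abundance) is given: HeLa Kyoto cells arrested at G1/S by double thymidine block, proteins quantified by TMT10plex mass spectrometry in mild NP-40 versus SDS extracts, three biological replicates.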
# 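Wherever thermal stability score vs G1/S (z-score of summed log2 fold changes over temperatures) is given: synchronized HeLa Kyoto cells, proteins quantified by TMT10plex mass spectrometry, three biological replicates, mitosis taken 0.5 h after nocodazole release, G1/S directly after double thymidine block.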
Substance,"thermal stability score [1, 5]",thermal stability score ([1]; cell cycle stage: mitosis),solubility change mitosis (log2) [2],solubility in G1/S (log2) [3],melting temperature ([4]; cell cycle stage: G1/S) [°C],melting temperature ([4]; cell cycle stage: mitosis) [°C]
MASEEASLRALESLMTEFFHDCTTNERKREIEELLNNFAQQIGAWRFCLYFLSSTRNDYVMMYSLTVFENLINKMWLGVPSQDKMEIRSCLPKLLLAHHKTLPYFIRNKLCKVIVDIGRQDWPMFYHDFFTNILQLIQSPVTTPLGLIMLKTTSEELACPREDLSVARKEELRKLLLDQVQTVLGLLTGILETVWDKHSVTAATPPPSPTSGESGDLLSNLLQSPSSAKLLNQPIPILDVESEYICSLALECLAHLFSWIPLSASITPSLLTTIFHFARFGCDIRARKMASVNGSSQNCVSGQERGRLGVLAMSCINELMSKNCVPMEFEEYLLRMFQQTFYLLQKITKDNNAHTVKSRLEELDESYIEKFTDFLRLFVSVHLRRIESYSQFPVVEFLTLLFKYTFHQPTHEGYFSCLDIWTLFLDYLTSKIKSRLGDKEAVLNRYEDALVLLLTEVLNRIQFRYNQAQLEELDDETLDDDQQTEWQRYLRQSLEVVAKVMELLPTHAFSTLFPVLQDNLEVYLGLQQFIVTSGSGHRLNITAENDCRRLHCSLRDLSSLLQAVGRLAEYFIGDVFAARFNDALTVVERLVKVTLYGSQIKLYNIETAVPSVLKPDLIDVHAQSLAALQAYSHWLAQYCSEVHRQNTQQFVTLISTTMDAITPLISTKVQDKLLLSACHLLVSLATTVRPVFLISIPAVQKVFNRITDASALRLVDKAQVLVCRALSNILLLPWPNLPENEQQWPVRSINHASLISALSRDYRNLKPSAVAPQRKMPLDDTKLIIHQTLSVLEDIVENISGESTKSRQICYQSLQESVQVSLALFPAFIHQSDVTDEMLSFFLTLFRGLRVQMGVPFTEQIIQTFLNMFTREQLAESILHEGSTGCRVVEKFLKILQVVVQEPGQVFKPFLPSIIALCMEQVYPIIAERPSPDVKAELFELLFRTLHHNWRYFFKSTVLASVQRGIAEEQMENEPQFSAIMQAFGQSFLQPDIHLFKQNLFYLETLNTKQKLYHKKIFRTAMLFQFVNVLLQVLVHKSHDLLQEEIGIAIYNMASVDFDGFFAAFLPEFLTSCDGVDANQKSVLGRNFKMDRDLPSFTQNVHRLVNDLRYYRLCNDSLPPGTVKL [XPO6],0.528,0.436,-0.202,-0.281,49.6,50
MPPKVTSELLRQLRQAMRNSEYVTEPIQAYIIPSGDAHQSEYIAPCDCRRAFVSGFDGSAGTAIITEEHAAMWTDGRYFLQAAKQMDSNWTLMKMGLKDTPTQEDWLVSVLPEGSRVGVDPLIIPTDYWKKMAKVLRSAGHHLIPVKENLVDKIWTDRPERPCKPLLTLGLDYTGISWKDKVADLRLKMAERNVMWFVVTALDEIAWLFNLRGSDVEHNPVFFSYAIIGLETIMLFIDGDRIDAPSVKEHLLLDLGLEAEYRIQVHPYKSILSELKALCADLSPREKVWVSDKASYAVSETIPKDHRCCMPYTPICIAKAVKNSAESEGMRRAHIKDAVALCELFNWLEKEVPKGGVTEISAADKAEEFRRQQADFVDLSFPTISSTGPNGAIIHYAPVPETNRTLSLDEVYLIDSGAQYKDGTTDVTRTMHFGTPTAYEKECFTYVLKGHIAVSAAVFPTGTKGHLLDSFARSALWDSGLDYLHGTGHGVGSFLNVHEGPCGISYKTFSDEPLEAGMIVTDEPGYYEDGAFGIRIENVVLVVPVKTKYNFNNRGSLTFEPLTLVPIQTKMIDVDSLTDKECDWLNNYHLTCRDVIGKELQKQGRQEALEWLIRETQPISKQH [XPNPEP1],-1,-3.97,-0.14,0.105,53,51.9
NUMA1,5.09,8.74,0.493,-0.199,47.7,49.7
MTELETAMGMIIDVFSRYSGSEGSTQTLTKGELKVLMEKELPGFLQSGKDKDAVDKLLKDLDANGDAQVDFSEFIVFVAAITSACHKYFEKAGLK [S100P],-0.94,-5.53,0.32,-0.525,54.1,51
MARYEEVSVSGFEEFHRAVEQHNGKTIFAYFTGSKDAGGKSWCPDCVQAEPVVREGLKHISEGCVFIYCQVGEKPYWKDPNNDFRKNLKVTAVPTLLKYGTPQKLVESECLQANLVEMLFSED [TXNDC17],4.94,2.6,-0.128,0.304,50.8,51.6
MTDGDYDYLIKLLALGDSGVGKTTFLYRYTDNKFNPKFITTVGIDFREKRVVYNAQGPNGSSGKAFKVHLQLWDTAGQERFRSLTTAFFRDAMGFLLMFDLTSQQSFLNVRNWMSQLQANAYCENPDIVLIGNKADLPDQREVNERQARELADKYGIPYFETSAATGQNVEKAVETLLDLIMKRMEQCVEKTQIPDTVNGGNSGNLDGEKPPEKKCIC [RAB27B],-1.38,-2.39,-0.0223,0.00344,55.7,59.9
MLPVYQEVKPNPLQDANLCSRVFFWWLNPLFKIGHKRRLEEDDMYSVLPEDRSQHLGEELQGFWDKEVLRAENDAQKPSLTRAIIKCYWKSYLVLGIFTLIEESAKVIQPIFLGKIINYFENYDPMDSVALNTAYAYATVLTFCTLILAILHHLYFYHVQCAGMRLRVAMCHMIYRKALRLSNMAMGKTTTGQIVNLLSNDVNKFDQVTVFLHFLWAGPLQAIAVTALLWMEIGISCLAGMAVLIILLPLQSCFGKLFSSLRSKTATFTDARIRTMNEVITGIRIIKMYAWEKSFSNLITNLRKKEISKILRSSCLRGMNLASFFSASKIIVFVTFTTYVLLGSVITASRVFVAVTLYGAVRLTVTLFFPSAIERVSEAIVSIRRIQTFLLLDEISQRNRQLPSDGKKMVHVQDFTAFWDKASETPTLQGLSFTVRPGELLAVVGPVGAGKSSLLSAVLGELAPSHGLVSVHGRIAYVSQQPWVFSGTLRSNILFGKKYEKERYEKVIKACALKKDLQLLEDGDLTVIGDRGTTLSGGQKARVNLARAVYQDADIYLLDDPLSAVDAEVSRHLFELCICQILHEKITILVTHQLQYLKAASQILILKDGKMVQKGTYTEFLKSGIDFGSLLKKDNEESEQPPVPGTPTLRNRTFSESSVWSQQSSRPSLKDGALESQDTENVPVTLSEENRSEGKVGFQAYKNYFRAGAHWIVFIFLILLNTAAQVAYVLQDWWLSYWANKQSMLNVTVNGGGNVTEKLDLNWYLGIYSGLTVATVLFGIARSLLVFYVLVNSSQTLHNKMFESILKAPVLFFDRNPIGRILNRFSKDIGHLDDLLPLTFLDFIQTLLQVVGVVSVAVAVIPWIAIPLVPLGIIFIFLRRYFLETSRDVKRLESTTRSPVFSHLSSSLQGLWTIRAYKAEERCQELFDAHQDLHSEAWFLFLTTSRWFAVRLDAICAMFVIIVAFGSLILAKTLDAGQVGLALSYALTLMGMFQWCVRQSAEVENMMISVERVIEYTDLEKEAPWEYQKRPPPAWPHEGVIIFDNVNFMYSPGGPLVLKHLTALIKSQEKVGIVGRTGAGKSSLISALFRLSEPEGKIWIDKILTTEIGLHDLRKKMSIIPQEPVLFTGTMRKNLDPFNEHTDEELWNALQEVQLKETIEDLPGKMDTELAESGSNFSVGQRQLVCLARAILRKNQILIIDEATANVDPRTDELIQKKIREKFAHCTVLTIAHRLNTIIDSDKIMVLDSGRLKEYDEPYVLLQNKESLFYKMVQQLGKAEAAALTETAKQVYFKRNYPHIGHTDHMVTNTSNGQPSTLTIFETAL [ABCC4],-1.17,-1.43,-0.177,-0.0872,57.5,55.8
MELRVLLCWASLAAALEETLLNTKLETADLKWVTFPQVDGQWEELSGLDEEQHSVRTYEVCDVQRAPGQAHWLRTGWVPRRGAVHVYATLRFTMLECLSLPRAGRSCKETFTVFYYESDADTATALTPAWMENPYIKVDTVAAEHLTRKRPGAEATGKVNVKTLRLGPLSKAGFYLAFQDQGACMALLSLHLFYKKCAQLTVNLTRFPETVPRELVVPVAGSCVVDAVPAPGPSPSLYCREDGQWAEQPVTGCSCAPGFEAAEGNTKCRACAQGTFKPLSGEGSCQPCPANSHSNTIGSAVCQCRVGYFRARTDPRGAPCTTPPSAPRSVVSRLNGSSLHLEWSAPLESGGREDLTYALRCRECRPGGSCAPCGGDLTFDPGPRDLVEPWVVVRGLRPDFTYTFEVTALNGVSSLATGPVPFEPVNVTTDREVPPAVSDIRVTRSSPSSLSLAWAVPRAPSGAVLDYEVKYHEKGAEGPSSVRFLKTSENRAELRGLKRGASYLVQVRARSEAGYGPFGQEHHSQTQLDESEGWREQLALIAGTAVVGVVLVLVVIVVAVLCLRKQSNGREAEYSDKHGQYLIGHGTKVYIDPFTYEDPNEAVREFAKEIDVSYVKIEEVIGAGEFGEVCRGRLKAPGKKESCVAIKTLKGGYTERQRREFLSEASIMGQFEHPNIIRLEGVVTNSMPVMILTEFMENGALDSFLRLNDGQFTVIQLVGMLRGIASGMRYLAEMSYVHRDLAARNILVNSNLVCKVSDFGLSRFLEENSSDPTYTSSLGGKIPIRWTAPEAIAFRKFTSASDAWSYGIVMWEVMSFGERPYWDMSNQDVINAIEQDYRLPPPPDCPTSLHQLMLDCWQKDRNARPRFPQVVSALDKMIRNPASLKIVARENGGASHPLLDQRQPHYSAFGSVGEWLRAIKMGRYEESFAAAGFGSFELVSQISAEDLLRIGVTLAGHQKKILASVQHMKSQAKPGTPGGTGGPAPQY [EPHB4],1.38,-0.755,-0.108,0.0967,49.4,48.9
TMED2,1.23,2.29,-0.171,0.169,55.5,55.3
MAQSLRLHFAARRSNTYPLSETSGDDLDSHVHMCFKRPTRISTSNVVQMKLTPRQTALAPLIKENVQSQERSSVPSSENVNKKSSCLQISLQPTRYSGYLQSSNVLADSDDASFTCILKDGIYSSAVVDNELNAVNDGHLVSSPAICSGSLSNFSTSDNGSYSSNGSDFGSCASITSGGSYTNSVISDSSSYTFPPSDDTFLGGNLPSDSTSNRSVPNRNTTPCEIFSRSTSTDPFVQDDLEHGLEIMKLPVSRNTKIPLKRYSSLVIFPRSPSTTRPTSPTSLCTLLSKGSYQTSHQFIISPSEIAHNEDGTSAKGFLSTAVNGLRLSKTICTPGEVRDIRPLHRKGSLQKKIVLSNNTPRQTVCEKSSEGYSCVSVHFTQRKAATLDCETTNGDCKPEMSEIKLNSDSEYIKLMHRTSACLPSSQNVDCQININGELERPHSQMNKNHGILRRSISLGGAYPNISCLSSLKHNCSKGGPSQLLIKFASGNEGKVDNLSRDSNRDCTNELSNSCKTRDDFLGQVDVPLYPLPTENPRLERPYTFKDFVLHPRSHKSRVKGYLRLKMTYLPKTSGSEDDNAEQAEELEPGWVVLDQPDAACHLQQQQEPSPLPPGWEERQDILGRTYYVNHESRRTQWKRPTPQDNLTDAENGNIQLQAQRAFTTRRQISEETESVDNRESSENWEIIREDEATMYSNQAFPSPPPSSNLDVPTHLAEELNARLTIFGNSAVSQPASSSNHSSRRGSLQAYTFEEQPTLPVLLPTSSGLPPGWEEKQDERGRSYYVDHNSRTTTWTKPTVQATVETSQLTSSQSSAGPQSQASTSDSGQQVTQPSEIEQGFLPKGWEVRHAPNGRPFFIDHNTKTTTWEDPRLKIPAHLRGKTSLDTSNDLGPLPPGWEERTHTDGRIFYINHNIKRTQWEDPRLENVAITGPAVPYSRDYKRKYEFFRRKLKKQNDIPNKFEMKLRRATVLEDSYRRIMGVKRADFLKARLWIEFDGEKGLDYGGVAREWFFLISKEMFNPYYGLFEYSATDNYTLQINPNSGLCNEDHLSYFKFIGRVAGMAVYHGKLLDGFFIRPFYKMMLHKPITLHDMESVDSEYYNSLRWILENDPTELDLRFIIDEELFGQTHQHELKNGGSEIVVTNKNKKEYIYLVIQWRFVNRIQKQMAAFKEGFFELIPQDLIKIFDENELELLMCGLGDVDVNDWREHTKYKNGYSANHQVIQWFWKAVLMMDSEKRIRLLQFVTGTSRVPMNGFAELYGSNGPQSFTVEQWGTPEKLPRAHTCFNRLDLPPYESFEELWDKLQMAIENTQGFDGVD [NEDD4],-0.41,0.545,-0.163,-0.127,49.3,49.7
